Reference: paper PMC5626996

Target: NADH-dependent [FeFe]-hydrogenase Hyd1ABC (purified recombinant heterotrimer) (Syntrophomonas wolfei)

hydrogenase activity, Fdred → H2 (hydrogen production from reduced ferredoxin without NADH), 37°C, pH 7.5: < 0.01 U · mg^−1
hydrogenase activity, H2 → Fdox (reduction of oxidized ferredoxin with hydrogen as the electron donor), 37°C, pH 7.5: < 0.01 U · mg^−1
B1: Clostridial ferredoxin (Clostridium pasteurianum) (natural protein)
chain: MAYKIADSCVSCGACASECPVNAISQGDSIFVIDADTCIDCGNCANVCPVGAPVQE
